Laboratory results: paper PMC9458438
Where two headings read alike, the source gives them in different places.

How the values were obtained:
ParB-eGFP (Spo0J) [1] = biological target: T1, ParB-eGFP (Spo0J) (Bacillus subtilis, UniProt P26497 1-282); test: single-molecule colocalization with lambda DNA
T1 sequence: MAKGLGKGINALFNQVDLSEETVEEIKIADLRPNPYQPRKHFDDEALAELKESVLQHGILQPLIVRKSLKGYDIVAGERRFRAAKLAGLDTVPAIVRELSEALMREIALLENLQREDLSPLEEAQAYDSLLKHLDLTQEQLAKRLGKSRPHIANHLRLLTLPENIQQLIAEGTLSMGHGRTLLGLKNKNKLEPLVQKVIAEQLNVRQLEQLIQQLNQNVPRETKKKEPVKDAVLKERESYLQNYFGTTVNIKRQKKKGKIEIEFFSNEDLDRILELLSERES

ParB-eGFP (Spo0J) [2] = biological target: T1, ParB-eGFP (Spo0J); test: single-molecule colocalization with lambda DNA; remark: listed apart in the source

B1: ns-oligo-Cy5 (58 bp) (dsDNA)
DNA 1: CGAAGGCTACGTCCAGGAGCGCACCATCTTCTTCAAGGACGACGGCAACTACAAGACC
DNA 2: GGTCTTGTAGTTGCCGTCGTCCTTGAAGAAGATGGTGCGCTCCTGGACGTAGCCTTCG
binding signal (ParB-eGFP (Spo0J) [1]): ~2 fold shorter lifetime than parS-oligo | binding signal (ParB-eGFP (Spo0J) [2]): ~3 fold fewer multimer-oligo complexes than parS-oligo
